# T1: TTHB099 (Thermus thermophilus HB8, UniProt Q53W63 1-195)
# T1 sequence: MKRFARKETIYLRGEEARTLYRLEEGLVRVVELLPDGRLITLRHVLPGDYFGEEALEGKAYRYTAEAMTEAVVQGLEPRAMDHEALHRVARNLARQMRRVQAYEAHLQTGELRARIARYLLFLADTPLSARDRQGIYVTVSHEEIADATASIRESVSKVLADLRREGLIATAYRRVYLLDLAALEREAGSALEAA
# Biological target: T1, TTHB099
# Assay: BLI; up to 450 nM TTHB099; Buffer, salt, pH and temperature not given (as previously described); BLI 17, 50, 150, 450 nM TTHB099 on streptavidin sensors; EMSA 0-42.2 nM TTHB099
# Settings: protein: recombinant; label: 5' biotin
row,Binder,binding result
1,TTHA0374 site (dsDNA) DNA 1: AGGAATTCGTGCAGAGGTGAATAGTGATGTAAACTAAATTACCATCCCTCCAGAAGCTTG DNA 2: CAAGCTTCTGGAGGGATGGTAATTTAGTTTACATCACTATTCACCTCTGCACGAATTCCT,no binding
2,ST2_REPSAis control (dsDNA) DNA 1: CTAGGAATTCGTGCAGAGGTGAATCGTCATAGAATTCGTTACCATCCCTCCAGAAGCTTGGAC DNA 2: GTCCAAGCTTCTGGAGGGATGGTAACGAATTCTATGACGATTCACCTCTGCACGAATTCCTAG,no binding

# Biological target: T1, TTHB099
# Assay: BLI; Buffer, salt, pH and temperature not given (as previously described); BLI 17, 50, 150, 450 nM TTHB099 on streptavidin sensors; EMSA 0-42.2 nM TTHB099
# Settings: protein: recombinant; label: 5' biotin
row,Binder,Kd [nM]
1,TTHA1833 site (dsDNA) DNA 1: AGGAATTCGTGCAGAGGTGAATTGTAGGCCAGGCCACGTTACCATCCCTCCAGAAGCTTG DNA 2: CAAGCTTCTGGAGGGATGGTAACGTGGCCTGGCCTACAATTCACCTCTGCACGAATTCCT,3.05
2,ST2_099 m7 (dsDNA) DNA 1: AGGAATTCGTGCAGAGGTGAATTGTATTTTAGAATACATTACCATCCCTCCAGAAGCTTG DNA 2: CAAGCTTCTGGAGGGATGGTAATGTATTCTAAAATACAATTCACCTCTGCACGAATTCCT,5.82
3,ST2_099 m1 (dsDNA) DNA 1: AGGAATTCGTGCAGAGGTGAATGGTATTCTAGAATACATTACCATCCCTCCAGAAGCTTG DNA 2: CAAGCTTCTGGAGGGATGGTAATGTATTCTAGAATACCATTCACCTCTGCACGAATTCCT,6.29
4,TTHA0201/02 site (dsDNA) DNA 1: AGGAATTCGTGCAGAGGTGAATTTTGTTATACGCCACATTACCATCCCTCCAGAAGCTTG DNA 2: CAAGCTTCTGGAGGGATGGTAATGTGGCGTATAACAAAATTCACCTCTGCACGAATTCCT,780
5,ST2_099 m2 (dsDNA) DNA 1: AGGAATTCGTGCAGAGGTGAATTTTATTCTAGAATACATTACCATCCCTCCAGAAGCTTG DNA 2: CAAGCTTCTGGAGGGATGGTAATGTATTCTAGAATAAAATTCACCTCTGCACGAATTCCT,33.6
6,TTHA0080/81 site (dsDNA) DNA 1: AGGAATTCGTGCAGAGGTGAATTGTGTTTTAGTTTACTTTACCATCCCTCCAGAAGCTTG DNA 2: CAAGCTTCTGGAGGGATGGTAAAGTAAACTAAAACACAATTCACCTCTGCACGAATTCCT,93.2
7,ST2_099 m8 (dsDNA) DNA 1: AGGAATTCGTGCAGAGGTGAATTGTATTCAAGAATACATTACCATCCCTCCAGAAGCTTG DNA 2: CAAGCTTCTGGAGGGATGGTAATGTATTCTTGAATACAATTCACCTCTGCACGAATTCCT,6.81
8,TTHA0132/33 site (dsDNA) DNA 1: AGGAATTCGTGCAGAGGTGAATTGTAAGGGAGAATAAATTACCATCCCTCCAGAAGCTTG DNA 2: CAAGCTTCTGGAGGGATGGTAATTTATTCTCCCTTACAATTCACCTCTGCACGAATTCCT,221
9,ST2_099 m4 (dsDNA) DNA 1: AGGAATTCGTGCAGAGGTGAATTGTCTTCTAGAATACATTACCATCCCTCCAGAAGCTTG DNA 2: CAAGCTTCTGGAGGGATGGTAATGTATTCTAGAAGACAATTCACCTCTGCACGAATTCCT,9.56
10,ST2_099 m6 (dsDNA) DNA 1: AGGAATTCGTGCAGAGGTGAATTGTATACTAGAATACATTACCATCCCTCCAGAAGCTTG DNA 2: CAAGCTTCTGGAGGGATGGTAATGTATTCTAGTATACAATTCACCTCTGCACGAATTCCT,5.61
11,TTHA1911/12 site (dsDNA) DNA 1: AGGAATTCGTGCAGAGGTGAATTGTACTTGAGCATACCTTACCATCCCTCCAGAAGCTTG DNA 2: CAAGCTTCTGGAGGGATGGTAAGGTATGCTCAAGTACAATTCACCTCTGCACGAATTCCT,65.6
12,TTHB088/89 site (dsDNA) DNA 1: AGGAATTCGTGCAGAGGTGAATGGTAGCCTGGACCACATTACCATCCCTCCAGAAGCTTG DNA 2: CAAGCTTCTGGAGGGATGGTAATGTGGTCCAGGCTACCATTCACCTCTGCACGAATTCCT,3.35
13,TTHA0506/07 site (dsDNA) DNA 1: AGGAATTCGTGCAGAGGTGAATTGTTTTTCAAGATACATTACCATCCCTCCAGAAGCTTG DNA 2: CAAGCTTCTGGAGGGATGGTAATGTATCTTGAAAAACAATTCACCTCTGCACGAATTCCT,77.6
14,TTHA1626/27 site (dsDNA) DNA 1: AGGAATTCGTGCAGAGGTGAATGGTATGGGAAGCTACATTACCATCCCTCCAGAAGCTTG DNA 2: CAAGCTTCTGGAGGGATGGTAATGTAGCTTCCCATACCATTCACCTCTGCACGAATTCCT,102
15,ST2_099 m5 (dsDNA) DNA 1: AGGAATTCGTGCAGAGGTGAATTGTACTCTAGAATACATTACCATCCCTCCAGAAGCTTG DNA 2: CAAGCTTCTGGAGGGATGGTAATGTATTCTAGAGTACAATTCACCTCTGCACGAATTCCT,4.86
16,ST2_099 m3 (dsDNA) DNA 1: AGGAATTCGTGCAGAGGTGAATTGAATTCTAGAATACATTACCATCCCTCCAGAAGCTTG DNA 2: CAAGCTTCTGGAGGGATGGTAATGTATTCTAGAATTCAATTCACCTCTGCACGAATTCCT,13.8

# From article PMC7662524, “Determination and Dissection of DNA-Binding Specificity for the Thermus thermophilus HB8 Transcriptional Regulator TTHB099”
